Laboratory results taken from publication PMC8654964, “Centrosome dysfunction associated with somatic expression of the synaptonemal complex protein TEX12” (Communications Biology, 2021).

Target: the molecule itself
Test: SEC-MALS; Superdex 200 Increase 10/300 GL, 20 mM Tris pH 8.0, 150 mM KCl, 2 mM DTT, 0.5 ml/min; TEX12 loaded at 12 mg/ml, TEX12core at 4 mg/ml; self-association (homodimer)

B1: TEX12core (human TEX12 amino acids 49-123) (domain or fragment, UniProt Q9BXU0 49-123, looked up)
chain: KDEALEKDLNDVSKEINLMLSTYAKLLSERAAVDASYIDEIDELFKEANAIENFLIQKREFLRQRFTVIANTLHR
notes: Human TEX12, alpha-helical structural core, amino acids 49-123; Cloned into pMAT11 as a His6-MBP fusion with a TEV site; also called structural core (49-123); source: E. coli BL21(DE3), purified (Ni-NTA, amylose, TEV cleavage, anion exchange); not shown: His6, N-terminal, cleaved; MBP, N-terminal, cleaved
  stoichiometry N: 2

B2: TEX12 (human, full length, amino acids 1-123) (natural protein, UniProt Q9BXU0 1-123, looked up)
chain: MMANHLVKPDNRNCKRPRELESPVPDSPQLSSLGKSDSSFSEISGLFYKDEALEKDLNDVSKEINLMLSTYAKLLSERAAVDASYIDEIDELFKEANAIENFLIQKREFLRQRFTVIANTLHR
notes: Human TEX12, synaptonemal complex central element protein, amino acids 1-123 (full length); Cloned into pMAT11 as a His6-MBP fusion with a TEV site; also called recombinant human TEX12; source: E. coli BL21(DE3), purified (Ni-NTA, amylose, TEV cleavage, anion exchange); not shown: His6, N-terminal, cleaved; MBP, N-terminal, cleaved
  stoichiometry N: 2
